{"source": "paper PMC10646970", "target": "PD-L1 (programmed cell death ligand 1), N-terminal domain"}
{"substance": "wild-type (natural) PD-1 (from UniProt Q15116 25-170) (natural protein)", "values": [{"measurement": "increase in IFN-gamma production in MDA-MB-231/PBMC coculture, 10 ug/mL protein, 48 h, ELISA; PD-L1 is that on the tumour cells; pair blocked: PD-1 on PBMCs / PD-L1", "result": 92, "unit": "%"}]}
